Measured values reported in paper PMC10764323.

Target: His-tAmSOD2 (Avicennia marina MnSOD, AmSOD2, without the mitochondrial transit peptide) (Avicennia marina)
Test: SEC; gel filtration chromatography on a calibrated Biosil-250 analytical column, elution compared with standard proteins; native mass of almost 116 kDa against a single band of 26 kDa after SDS and DTT

- stoichiometry N: 4
Substance: His-tAmSOD2 (Avicennia marina MnSOD, AmSOD2, without the mitochondrial transit peptide) (enzyme)
